In patent US8217140B2, “Peptides capable of binding to serum proteins and compounds, constructs and polypeptides comprising the same” (Ablynx N.V., priority 2008, dated 2012):

Key:
[1] = system: platelet adhesion to fibrillar collagen; assay: Perfusion experiments: platelet adhesion to collagen at arterial shear rate; format: cell-based, human
Experimental: The perfusion experiments were performed with a single-pass perfusion chamber under non-pulsatile flow conditions using a modified small perfusion chamber with a slit height of 0.1 mm and a slit width of 2 mm. […] Citrated human blood was preincubated at 37° C. for 5 min with or without addition of test compound, and then perfused through the chamber for 5 min at a wall shear rate of 1600 s^−1 using an infusion/withdrawal pump (pump 22, model 2400-004, Harvard Apparatus, Holliston, Mass.). After the perfusion run, the coverslips were rinsed in Hepes buffered saline (10 mM Hepes, 150 mM NaCl, pH 7.4) and platelets were fixed with 5% glutaraldehyde and stained with May-Grünwald and Giemsa. Platelet deposition of the coverslip was evaluated as platelet surface coverage of 10 randomly chosen pictures using light microscopy (Olympus BX61 microscope using Analysis Five digital imaging solutions analysis software).

VWF = assay: Pharmacodynamic profile: ristocetin cofactor activity assay (% RICO) after i.v. administration; format: in vivo, Cynomolgus monkey
Experimental: For the constructs used in Example 14, pharmacodynamic characteristics upon compound administration were measured by means of a ristocetin cofactor activity assay (Biopool). The ristocetin cofactor activity is a functional assay for VWF, measuring the capacity of VWF to interact with the platelet receptor glycoprotein Ib using ristocetin as a modulator.
For pharmacodynamic data analysis, descriptive statistics (mean and SD) were calculated per dose group and per sampling time point using Microsoft Excel 2007. Response parameters and associated statistics for the overall time course were calculated by noncompartmental analysis of the response-time data using WinNonlin Pro 5.1 (Pharsight Corporation, USA; 2006). The non-compartmental analysis was based on a model for pharmacodynamic data (Model 220). The threshold value was set at 20% based on extensive historical PK/PD data on the vWF-0001 compound. Preclinical studies have shown that a complete inhibition of the pharmacodynamic marker are correlated with full antithrombotic efficacy. The following main pharmacodynamic parameters were determined: time below the threshold (Time below T), area under the threshold (AUC below T), time at which the % RICO first drops below the threshold (Tonset), and time at which the % RICO first returns back above the threshold (Toffset).

[2] = cynomolgus monkey, in vivo
Experimental: The pharmacokinetic profile of the constructs was analyzed in male cynomolgus monkeys of approximately 3 to 4 years old and was compared to the reference (SEQ ID NO:165). The constructs and the control were each injected in three monkeys at a dose of 2 mg/kg via an intravenous bolus injection. Blood samples were taken at predose, 5 min, 20 min, 1 h, 2 h, 4 h, 8 h (test day 1) after administration and at test days 2, 3, 5, 7, 9, 12, 15, 18, 21, 24, 27, 30, 33. In order to obtain at least 1 mL plasma per animal per sampling time, a sufficient volume of whole blood was withdrawn per sampling time. Plasma was collected after whole blood centrifugation for 30 minutes at 2200 g at room temperature (RT). The plasma samples were stored at −80° C. until analysis.
For bioanalytical determination of constructs and control article in monkey plasma, plasma samples were tested for levels of constructs and the control using ELISA based PK assays. The detection of control and constructs in the ELISA assays is based on the binding of these Nanobodies with vWF and the assay set-ups are as such that total vWF-binding Nanobody is detected.
For the reference (SEQ ID NO:165) and the construct of SEQ ID NO:167, 96-well microtiter plates (Maxisorp, Nunc, Wiesbaden, Germany) were coated overnight at 4° C. with neutravidin (Pierce) in 10:10 buffer at 3 μg/ml. Wells were aspirated and blocked for 1 hour at RT with PBS/1% casein. After this blocking step, wells were washed with PBS/0.05% Tween20. A biotinylated bivalent Nanobody against the constructs was added to the neutravidin coated plate at 2 μg/ml in PBS/0.1% casein and incubated for 1 hour at RT. After the incubation step of this capture tool, wells were washed 3 times with PBS/0.05% Tween20.
Preparations of the standards, QC samples and dilutions of the test samples were performed in a non-coated (polypropylene) plate. For the standard curve and QC-samples, solutions at the required concentrations were prepared in PBS/0.1% casein and spiked into 100% monkey plasma. To prepare standards and QC samples, a 1/100 dilution of the pure monkey plasma dilutions was made in IgM-Reducing Agent (Immunochemistry Technologies, Bloomington, USA) supplemented with 2.5% pooled human plasma (referred to as sample diluent). For the test samples, dilution factors for the test samples were estimated, and ranged between 1/100 to 1/9000 for the reference of SEQ ID NO:165 tests and between 1/100 and 12000 for the construct of SEQ ID NO: 167. Samples were diluted 1/100 in sample diluent in a first step, and if needed, further dilution was done in sample diluent supplemented with 1% cynomolgus plasma.
Standards, QC samples and diluted test samples were transferred onto the coated plate and incubated for 1 hour at RT. Afterwards the plates were washed followed by a complexation step with purified vWF (ZLB Behring). vWF diluted to 2.5 μg/ml for the assay for the reference of SEQ ID NO:165 and to 3 μg/ml for the assay for the construct of SEQ ID NO: 167 in PBS/0.1% casein was incubated on the plates for 30 minutes at RT. Plates were washed and Nanobody/vWF complexes bound to the capture tool detected with Rabbit anti-human vWF Ab (Dako, Denmark), diluted 1/2000 in PBS/0.1% casein and incubated for 30 minutes at RT. After washing, a 1/15000 dilution in PBS/0.1% casein of Horse-Radish-Peroxidase labelled goat anti-rabbit Ab (Dako, Denmark) was added to the plate and incubated for 30 minutes at RT. The enzyme coupled to the Ab catalyzes a chemical reaction with the substrate sTMB (3,3′,5,5′-tetramethylbenzidine, SDT reagents, Brussels, Belgium), resulting in a colorimetric change. After stopping this reaction after 10 minutes using HC1 (1N), the intensity of the colour was measured using a spectrophotometer at 450 nm. […]

[3] = threshold 20% RICO, i.v. bolus 2 mg/kg, male Cynomolgus monkey, mean n = 3

B1: 12A2_sv1-AAA-12A2_sv1-9GS-59C2-9GS-59C2 (protein)
chain: DVQLVESGGGLVQPGGSLRLSCAASGRTFSYNPMGWFRQAPGKGRELVAAISRTGGSTYYPESVEGRFTISRDNAKRTVYLQMNSLRAEDTAVYYCAAAGVRAEQGRVRTLPSEYTFWGQGTQVTVSSAAAEVQLVESGGGLVQPGGSLRLSCAASGRTFSYNPMGWFRQAPGKGRELVAAISRTGGSTYYPESVEGRFTISRDNAKRTVYLQMNSLRAEDTAVYYCAAAGVRAEQGRVRTLPSEYTFWGQGTQVTVSSGGGGSGGGSRDWDFDVFGGGTPVGGGGGGSGGGSRDWDFDVFGGGTPVGG
Effective concentration compared to VWF0001 ([1]; FIG. 12): similar
inhibition of platelet adhesion to fibrillar collagen at arterial shear rate ([1]; citrated human blood, wall shear rate 1600 s^−1, FIG. 12): dose-dependently and completely inhibit
Tonset values (VWF; estimated, i.v. application): ~5 min
mean AUC under the threshold increase relative to vWF0001 (VWF; i.v. bolus): 259 fold
time below the threshold increase relative to vWF0001 (VWF; i.v. bolus): 167 fold
AUC below T (VWF; [3]): 1709 % RICO * h
Time below T (VWF; [3]): 202 h
Tonset (VWF; time % RICO first drops below threshold, i.v. bolus 2 mg/kg): 0.079 h
Toffset (VWF; time % RICO first returns above threshold, i.v. bolus 2 mg/kg): 202 h
Vdss lower relative to vWF0001 [2]: 19 fold
dominant half-life (t½ dominant) increase relative to vWF0001 [2]: 158 fold
mean CL decrease compared to the control [2]: 67 fold
AUCinf ([2]; iv, 2 mg/kg): 4140 µg·h/mL
C0 ([2]; iv, 2 mg/kg): 69.4 µg/mL
